According to patent US20240368304A1:

Biological target: epidermal growth factor receptor variant III (EGFRvIII) on U87EGFRvIII cells (UniProt P00533)
Experiment: cell-based or functional assay

Human IFN-gamma release from CAR T cells co-cultured with U87 VIII GFP target cells (sandwich ELISA, E:T 10:3): 4750
Substance: 2173 CD28zeta CAR (EGFRvIII specific CAR) on transduced primary human T cells
% cytolysis (killing) of U87 VIII GFP target cells, xCELLigence eSight impedance: 100%
